Here are results for three molecules from publication PMC3210417 (Nature structural & molecular biology, 2011).

The target in test [1] is recombinant nucleosome core particle formed from full-length Xenopus recombinant histones and mouse (Xenopus). The experiment in a line: negative-stain EM of single particles.
Test [2] has as its target T1, Epl1 (residues 51–380, EPcA domain) of Piccolo v07 (S. cerevisiae, UniProt P43572 51-380).
T1 sequence: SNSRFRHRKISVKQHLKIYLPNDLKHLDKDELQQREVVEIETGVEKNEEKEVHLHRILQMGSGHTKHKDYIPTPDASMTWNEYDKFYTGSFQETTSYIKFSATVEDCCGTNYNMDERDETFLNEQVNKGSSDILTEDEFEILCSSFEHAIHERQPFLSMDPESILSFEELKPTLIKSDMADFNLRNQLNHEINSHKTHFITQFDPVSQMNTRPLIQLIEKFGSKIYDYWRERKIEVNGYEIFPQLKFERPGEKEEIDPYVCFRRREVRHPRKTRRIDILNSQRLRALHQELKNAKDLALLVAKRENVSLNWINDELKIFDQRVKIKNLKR
The test is described as follows: AUC.

As to “NuA4 histone acetyltransferase complex (from UniProt P43572;Q08649;P38806;Q06337;P38811;Q12432;P39995;P53911;P53201;P53930;P60010;P80428;P47128)”, in test [1], the percent of NuA4 particles bound to NCP came to 5% and the stoichiometry N was 1.

B1: Yng2 (residues 2–218, without PHD domain) of Piccolo v07 (domain or fragment)
chain: DPSLVLEQTIQDVSNLPSEFRYLLEEIGSNDLKLIEEKKKYEQKESQIHKFIRQQGSIPKHPQEDGLDKEIKESLLKCQSLQREKCVLANTALFLIARHLNKLEKNIALLEEDGVLAPVEEDGDMDSAAEASRESSVVSNSSVKKRRAASSSGSVPPTLKKKKTSRTSKLQNEIDVSSREKSVTPVSPSIEKKIARTKEFKNSRNGKGQNGSPENEE
On to B1, for which the “stoichiometry N” value in test [2] amounted to 1.

B2: Esa1 (residues 2–445), 6 × His-tagged, of Piccolo v07 (enzyme)
chain: SHDGKEEPGIAKKINSVDDIIIKCQCWVQKNDEERLAEILSINTRKAPPKFYVHYVNYNKRLDEWITTDRINLDKEVLYPKLKATDEDNKKQKKKKATNTSETPQDSLQDGVDGFSRENTDVMDLDNLNVQGIKDENISHEDEIKKLRTSGSMTQNPHEVARVRNLNRIIMGKYEIEPWYFSPYPIELTDEDFIYIDDFTLQYFGSKKQYERYRKKCTLRHPPGNEIYRDDYVSFFEIDGRKQRTWCRNLCLLSKLFLDHKTLYYDVDPFLFYCMTRRDELGHHLVGYFSKEKESADGYNVACILTLPQYQRMGYGKLLIEFSYELSKKENKVGSPEKPLSDLGLLSYRAYWSDTLITLLVEHQKEITIDEISSMTSMTTTDILHTAKTLNILRYYKGQHIIFLNEDILDRYNRLKAKKRRTIDPNRLIWKPPVFTASQLRFAW
For B2, the “stoichiometry N” value in test [2] was determined as 1.
